Data set [1] addresses CALR del52 (human calreticulin mutant L367fs*46), full length, no tag stated (human). Briefly: flow cytometry on living Ba/F3 cells with human TPOR and CALR mutant after adding the Fc fusion to the medium; concentration not given. A general note: In flow cytometry, cells or beads pass a laser one at a time.
Data set [2] concerns the molecule itself. As to the kind of experiment: native gel of CALR species with or without DTT (self-association).
Data set [3] concerns the molecule itself. As to the kind of experiment: native gel with or without DTT (self-association).
For data set [4], the target named is T1, recombinant complete extracellular domain of TpoR with mature glycans (human, UniProt P40238 26-490, mature glycans).
T1 construct: Purified recombinant protein used in HDx-MS; also called TpoR ECD; D1D2D3D4
T1 sequence: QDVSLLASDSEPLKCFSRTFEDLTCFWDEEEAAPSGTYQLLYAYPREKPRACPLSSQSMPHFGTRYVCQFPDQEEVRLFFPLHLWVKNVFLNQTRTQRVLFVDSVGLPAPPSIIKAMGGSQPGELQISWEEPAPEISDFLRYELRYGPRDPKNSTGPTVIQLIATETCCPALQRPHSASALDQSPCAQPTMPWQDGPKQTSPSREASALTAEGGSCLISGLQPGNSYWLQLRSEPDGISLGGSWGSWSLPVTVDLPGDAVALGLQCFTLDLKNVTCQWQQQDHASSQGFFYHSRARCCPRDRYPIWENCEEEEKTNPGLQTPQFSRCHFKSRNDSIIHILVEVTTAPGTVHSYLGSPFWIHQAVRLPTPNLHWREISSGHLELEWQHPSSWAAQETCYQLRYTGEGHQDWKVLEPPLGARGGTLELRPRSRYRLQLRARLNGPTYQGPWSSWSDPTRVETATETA
As to the kind of experiment: HDx-MS of mature TpoR ECD alone or with CALR del52. On the procedure:
Hydrogen-Deuterium Exchange Mass Spectrometry (HDx-MS): Hydrogen-Deuterium Exchange Mass Spectrometry was performed with a Waters nanoAcquity UPLC with HDx technology coupled with Synapt G2-Si. All purified recombinant proteins were used at 20 μM concentration in equilibration buffer (5 mM K2HPO4, 5 mM KH2PO4 dissolved in H2O, pH 7). For interaction analysis between recombinant mature D1D2D3D4 and CALR del52, proteins were first mixed together at a 1:1 molarity for 30 minutes at room temperature followed by 3 hours at 4° C. Proteins were then kept at 0° C. Labelling was performed with a 20-fold dilution of samples in labelling buffer (5 mM K2HPO4, 5 mM KH2PO4 dissolved in D20, pD 7) for 6 different incubation times (0, 0.25, 1, 5, 20 and 60 minutes) at 20° C. After incubation, the reaction was quenched using a 1:1 dilution in the quench buffer (0.05 M K2HPO4, 0.05 M KH2PO4 with 30 mM TCEP, pH 2.3) prior to injection into a pepsin column (Enzymate BEH Pepsin 2.1×30 Column, Waters CAT. 186007233) with dynamic flowrate of 150-75 μL/min. […] The peptides identified were further analyzed with DynamX 3.0 (Waters) using a tolerance of 10 ppm, a maximum length of 35 a.a., a minimum products per amino acid of 0.2 and requiring that each peptide was identified in 3 out of 3 replicates. […] Data was statistically analyzed using Deuteros 2.0 with peptide-level significance testing (Lau et al., 2021). […]

Data set [5] addresses T2, TpoR D1D2 (sD1D2) with immature glycans, produced with CALR del52 in Drosophila S2 (Schneider) cells (human, UniProt P40238 26-283, limits assumed, immature glycans (Asn117)).
T2 construct: Purified as a complex with CALR del52 for HDx-MS; also called immature TpoR
T2 sequence: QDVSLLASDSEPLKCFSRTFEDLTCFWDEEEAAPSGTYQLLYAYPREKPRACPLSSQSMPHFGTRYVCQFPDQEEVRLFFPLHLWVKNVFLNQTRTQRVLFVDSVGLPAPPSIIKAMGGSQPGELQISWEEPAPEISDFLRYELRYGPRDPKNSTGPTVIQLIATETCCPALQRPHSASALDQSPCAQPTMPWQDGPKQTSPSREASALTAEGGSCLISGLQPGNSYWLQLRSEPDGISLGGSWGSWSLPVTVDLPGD
Briefly: complex co-produced in S2 cells, size-exclusion chromatography, HDx-MS. From the text:
All peptides were visually validated based on retention time, drift time and isotopic m/z. Data was statistically analyzed using Deuteros 2.0 with peptide-level significance testing (Lau et al., 2021).
Subsequently, CALR del52-D1D2 produced as a complex in Schneider cells was purified. Briefly, the extracellular domain of the human TpoR and human CALR mutant del52 produced in Drosophila S2 cells (Thermo Fisher Scientific) were fractionated by using size-exclusion chromatography by loading on a Superdex 200 Increase 10/300 column (GE Healthcare). Elution was performed at 0.5 mL/min with buffer TNG (Tris-NaCl-glycerol) pH 7.5, and 0.5 mL fractions were collected and analyzed by sodium dodecyl sulfate-polyacrylamide gel electrophoresis and western blot. Fraction proteins were immunoprecipitated with anti-His5 antibody (Qiagen) and treated with Endoglycosidase-H (NEB) or N-glycosidase F (NEB). HDx-MS was used to detect all interaction sites between CALR del52 and TpoR D1D2 (sD1D2) produced in the same cells. […] Importantly, this region was not involved in binding of mature TpoR as shown above, confirming that it is specifically involved in interaction with immature glycans. […]
A general note: Size exclusion chromatography separates by hydrodynamic size, large species first.

This note sets out measurements from patent US20250250320A1 (UNIVERSITE CATHOLIQUE DE LOUVAIN, published 2025).

In data set [1], “D1-Fc (TPOR D1 domain fused through its C-terminus to an Fc fragment) (from UniProt P40238 26-121) (Fc fusion)” registered a reduction of the level of CALR mutant at the cell surface greater than 50%.

B1: CALR Δc-tail (other)
chain: EPAVYFKEQFLDGDGWTSRWIESKHKSDFGKFVLSSGKFYGDEEKDKGLQTSQDARFYALSASFEPFSNKGQTLVVQFTVKHEQNIDCGGGYVKLFPNSLDQTDMHGDSEYNIMFGPDICGPGTKKVHVIFNYKGKNVLINKDIRCKDDEFTHLYTLIVRPDNTYEVKIDNSQVESGSLEDDWDFLPPKKIKDPDASKPEDWDERAKIDDPTDSKPEDWDKPEHIPDPDAKKPEDWDEEMDGEWEPPVIQNPEYKGEWKPRQIDNPDYKGTWIHPEIDNPEYSPDPSIYAYDNFGVLGLDLWQVKSGTIFDNFLITNDEAYAEEFGNETWGVTKAAEKQMKDKQDEEQR
notes: the C-tail is absent
For the molecule B1, the binding result in data set [2] is recorded as “no binding”.

B2: CALR del52 (human calreticulin mutant L367fs*46), full length, no tag stated (other)
chain: EPAVYFKEQFLDGDGWTSRWIESKHKSDFGKFVLSSGKFYGDEEKDKGLQTSQDARFYALSASFEPFSNKGQTLVVQFTVKHEQNIDCGGGYVKLFPNSLDQTDMHGDSEYNIMFGPDICGPGTKKVHVIFNYKGKNVLINKDIRCKDDEFTHLYTLIVRPDNTYEVKIDNSQVESGSLEDDWDFLPPKKIKDPDASKPEDWDERAKIDDPTDSKPEDWDKPEHIPDPDAKKPEDWDEEMDGEWEPPVIQNPEYKGEWKPRQIDNPDYKGTWIHPEIDNPEYSPDPSIYAYDNFGVLGLDLWQVKSGTIFDNFLITNDEAYAEEFGNETWGVTKAAEKQMKDKQDEEQRTRRMMRTKMRMRRMRRTRRKMRRKMSPARPRTSCREACLQGWTEA
notes: also called CALR mutant; mutant CALR
On to B2, for which the binding result in data set [3], in data set [4] and in data set [5] was “binds” in each case.
